Assay results as given in the nanobody polyreactivity screen of Harvey et al. (2022).

Experiment: yeast display, Sf9 membrane polyspecificity reagent, FACS + sequencing; frameworks hold sequencing errors
Method in brief: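 A synthetic nanobody library was expressed on Saccharomyces cerevisiae BJ5465 by galactose induction for 36–48 hours. The library was stained for 1 hour at 4 °C with 10% biotinylated, detergent-solubilized Sf9 membrane reagent and enriched with streptavidin microbeads before FACS. Low and high (top ~1%) gates were set on anti-HA fluorescence for expression and streptavidin fluorescence for reagent binding, and each polyreactivity label reflects the gate of origin.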

| Sequence | polyreactivity (PSR sort gate) |
| --- | --- |
| QVQLVESGGGLVQAGGSLRLSCAASGSIYYWYTMGWYRQAPGKERELVAAISLSDGRTYYADSVKGRFTISRDNAKNTVYLQMNSLKPEDTAVYYCAADYRDASGYYRYDYWGQGTQVTVSS | low polyreactivity |
| QVQLVESGGGLVQAGGSLRLSCADSGIIFKGYDMGWYSQPPGKEREVVAAIYSGSTNYADSVKGRFTISRDNAKNTVYLQMNSLKPEDTAVYYCNSDLGRATFYQRVFIERGGYWGQGTQVTVSS | low polyreactivity |
| QVQLVESGGGLVQAGGSLRLSCAASGRIFRKYGMGWYRPAPGKERELVAAITGGGSTYYADSVKGRFTISRDNAKNTVYVQMNSLKPEDTAVYYCARGGYRWYPYVYVPSPFDYWGQGTQVTVSS | high polyreactivity |
| QVQLVESGGGLVQAGGSLRLSCAASGIIFRANAMGWYRQAPGKERELVAAISGRGSSTTYADSVKGRFTISRDNAKNTVYLQMNSLKPEDTAVYYCAADTWYPGYYAYDYWGQGTQVTVSS | high polyreactivity |
| QVQLVESGGCLVQAGGSLRLSCAASGNTFWVNSMGWYRQAPGKERELVAGITSSGDSTSYADSVKGRFTISRDNAKNTVYLQMNSLKPEDTAVYYCAADVGGFWYTEYYWGQGTQVTVSS | high polyreactivity |
| QVQLVESGGGLVQAGGRLRISFAATGITSGRYAMGGYRQAPGNERELVAAISNSGGSTYYADSVKGRFTISRDNAKNTVYLQMNSLKPEDTAVYYCAARSASSRMDYWGQGTQVTVSS | high polyreactivity |
| QVQLVESGGGLVQAGGSLRLSCAASGSNFYHYAMGWYRQAPGKERELVAAITRSGGSTYYADSVKGRFTISRDNAKNTVYLQLNSLKPEDTAVYYCAKDPDSYNFLTSNWYDYWGQGTQVTVSS | low polyreactivity |
| QVQLVESGGGLVQAGGSLRLSCAASGRTIRRNARGWYRQAPGKERELVAGISGSGTITYADSVKGRVTISRDNAKNTVYLQMNSLKPEDTAVYYCAARRKSFYTFYYWGQGTKVTVSS | high polyreactivity |
| QVQLVESCGGLVQAGGILRLSCAASGFISSENAMGWYRQAPGKERELVAAISSGGSTNYADSVKGRFTISRDNAKNTVYLQMNRLKAEVTAVYYCAATLQGWYHEDESWGQGTQVTVSS | low polyreactivity |
| QVQLVESGGGLVQAGGSLRLSCAASGSTFTRNAMGWYRPAPGKERELVAAITSSGGYTYYADSVKGRFTISRDNAKNTVYLQMNSLKPEDTAVYYCAAYPHRPRDRELDHWGQGTQVTVSS | low polyreactivity |
| QDQLVESGGGLVQAGGSLRLSCAASGRTLGKYAMGWSRQAPGQERELVAAITQRGGITYYADSVQGRFTISRDNAKNTVYLQMNSLKPEDTAVYYCAASLYSYRSPYTFYYWGQGTQVTVSS | high polyreactivity |
| QVQLVESGGGLVQAGGSLRLSCAASGSTLGYYGMGWYRQAPGKERELVAAISGRGTSTYYADSVKGRCTISRDNAKNTVYLQMNSLKPEDTAVYYCAAQLFRELYWGQGTQVTVSS | high polyreactivity |
| QVQLVESGGGLVHAGGSLRLSCAASGSTFYSYAMGGYRQAPGKERELVAAISRSGGRTYYADSVKGRFTISRDIAKNTVYLQMKSLKPEDTAVYYCNAVNSVTTSTRTRAKYAAYDSWGQGTQVTVSS | high polyreactivity |
| QVQLVESGGGLVQAGRILRLSCAASGIILGRYAMGWYRQAHGKERELVAAITASGGRTYYADSVKGRFTISRDNAKNTVYLQMNSLKPEDTAVYYCNTVYWGYKSHYDYWGQGTQVTVSS | high polyreactivity |
| QVQLVESGGGLVQAGGSLRLSCAASGRTFGNNAMGWYRQAPGKEREFVAAITSRGGSTYYADSVKGRFTISRDNAKNTVYLQINSLKPEDTAVYYCNREYQLPSQRTEHYYWGQGTQVTVSS | low polyreactivity |
| QVQLVESGGGLVQAGGSLRLSCAHSASTLQIYAMGWDRQAPGKESELVASISSTTSTNYADSVMGRFTISRDNAKNTVYLQMNSMKPEDTAVYYCARERFGGTDSQVVPWFRFDYDYWGQRTQVTVSS | low polyreactivity |
| QVQLVESGAGLVQAGGSLRLSCAASGRIFYKYVMGWYRQAPGKERELVATITSGGSTYYADSVKGRFTISRDNAKNTVYLQMNSLKPEDTAVYYCATKQSRTRYDRYGYWGQGTQVNVSS | high polyreactivity |
| QVQLVESGGGLVQTGGSLRLSCAASGRIFKHYAMGWYTHAPGKERELVAAITNGGRTNYSDSVKGRFTISRDNAKNTVYLQMNSLKPEDTAVSYCARDRKIAYLSEGFDYWGQGTQVSVSS | low polyreactivity |
| QVQLVESGGGLVQAGGSLRLSCAASGRIFQRNAMGWYRQAPGKERELVAAITSTGVRTYYADSVKGRFTISRDNAKNTVYLQMNSLKPEDTAVYYCAVRGERRYIYAYWGQGTQVTVSS | high polyreactivity |
| QVQLVESGGGLVQAGGSLRLSCAASGSIFGGYGLGWYRQAPGKERELVAASTSGSSTYYADSVKGRFTISRDNAKNTVYFPMNSLKPEDTAVSYFAARPFPHSAYEGDYWGRGTQVTVSS | low polyreactivity |
| QVQLVESRGGLVQAGGSLRLSCAASGRIFRYNAMGWYRQAPGKERELVAAITWSGVSTYYADSVKGRFTISRDNAKNTGYLQMNSLKPEHTAVYYCNARRWPAWSSDDYWGQGTQVTVSS | high polyreactivity |
